We go through two molecules from patent US20220411472A1 (FRED HUTCHINSON CANCER CENTER, published 2022).

In experiment [1] the target is Biotinylated Tir-10_v2 peptide, Biotin-Ahx-EHI-pY-DEVAAD.
For experiment [2] the target is unchanged. This is another data set of the same source.
Experiment [3] concerns the target Tir10 phosphotyrosyl peptide, FITC-Ahx-EHI-pY-DEVAAD.
The target in experiment [4] is T1, OX40 receptor on activated human CD8+ T-cells (human, UniProt P43489 29-277).
T1 construct: whole, on cells; also called CD134
T1 sequence (looked up): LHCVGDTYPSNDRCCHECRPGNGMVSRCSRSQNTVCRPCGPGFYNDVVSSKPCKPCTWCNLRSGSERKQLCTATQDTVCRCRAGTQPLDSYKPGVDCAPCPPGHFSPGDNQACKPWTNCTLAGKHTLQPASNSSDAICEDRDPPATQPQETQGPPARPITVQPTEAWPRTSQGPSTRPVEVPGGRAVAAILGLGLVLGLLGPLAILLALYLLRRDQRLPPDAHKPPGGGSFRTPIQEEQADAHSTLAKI
Kind of experiment: flow cytometry, CD8+ T-cells 4 days after anti-CD3/anti-CD28 bead activation, 2 µg/mL construct, secondary anti-His iFluor647; axis APC: OX40; lower panel. Background: A flow cytometer gives signals particle by particle.
Procedure: T-cell isolation, proliferation and activation assays. […] Cells were incubated for 30 min at 37° C. with cTRP24₆SS-scTrimer^OX40L (2 μg/mL) or cTRP24₆SS-scTrimer^4-1BBL (2 μg/mL) and subsequently stained at 4° C. using THE anti-His Ab (GenScript; #A00186).

Like-named read-outs stand apart in the source and are kept apart here.

One may read the EC50 (read off the curve) as the concentration needed to bring the measured effect to its halfway point. A lower EC50 (read off the curve) goes with greater potency.

For the molecule “Free SH2 domain of the human Nck2 adapter protein”, the maximum binding response in experiment [1] was 125 RU. Further, in experiment [2], the maximum binding response turned out to be 10 RU and the response is 80 RU. The EC50 (read off the curve) in experiment [3] came to 400 nM.

B1: cTRP246SS-scTrimer^OX40L (6-repeat disulfide-stapled cTRP tetramer with a single chain trimer of OX40L on each subunit) (ligand)
chain: QVSHRYPRIQSIKVQFTEYKKEKGFILTSQKEDEIMKVQNNSVIINCDGFYLISLKGYFSQEVNISLHYQKDEEPLFQLKKVRSVNSLMVASLTYKDKVYLNVTTDNTSLDDFHVNGGELILIHQNPGEFCVLGGGGSQVSHRYPRIQSIKVQFTEYKKEKGFILTSQKEDEIMKVQNNSVIINCDGFYLISLKGYFSQEVNISLHYQKDEEPLFQLKKVRSVNSLMVASLTYKDKVYLNVTTDNTSLDDFHVNGGELILIHQNPGEFCVLGGGGSQVSHRYPRIQSIKVQFTEYKKEKGFILTSQKEDEIMKVQNNSVIINCDGFYLISLKGYFSQEVNISLHYQKDEEPLFQLKKVRSVNSLMVASLTYKDKVYLNVTTDNTSLDDFHVNGGELILIHQNPGEFCVLGGGGSGGGGSCEAIKAAAELGKAGISSEEILELLRAAHELGLDPEAIKAAAELGKAGISSEEILELLRAAHELGLDPEAIKAAAELGKAGISSEEILELLRAAHELGLDPEAIKAAAELGKAGISSEEILELLRAAHELGLDPEAIKAAAELGKAGISSEEILELLRAAHELGLDPECIKAAAELGKAGISSEEILELLRAAHELGLGGSHHHHHH
notes: also called cTRP246SS-scTrimer^OX4OL; cTRP246SS-scFv^OX40L
In the case of B1, the binding result in experiment [4] is reported as “binds”.
